B1: MetO PLD (MetO-PLD polypeptide of the invention; SEQ ID NO: 2 with oxidized methionine residues) (other)
chain: GRFGGNPGGFGNQGGFGNSRGGGAGLGNNQGSNMGGGMNFGAFSINPAMMAAAQAALQSSWGMMGMLASQQNQSGPSGNNQNQGNMQREPNQAFGSGNNSYSGSNSGAAIGWGSASNAGSGSGFNGGFGSSMDSKSSGWGM
modifications: methionine sulfoxide at all Met residues (M307, M311, M322, M323, M336, M337, M339, M359, M405, M414, numbered on full human TDP-43, SEQ ID NO: 3); full MetO validated by mass spectrometry and NMR (M414 not detected by MS)

Tests used:
[1] = target: prion-like domain (PLD) of human TDP-43 (TDP-43 274-414), unmodified (human) (UniProt Q13148); assay: cell-based or functional assay
[2] = target: prion-like domain (PLD) of human TDP-43 (TDP-43 274-414), unmodified (human) (UniProt Q13148); assay: 15N CPMG relaxation dispersion, 200 µM PLD, region 321-343; self-assembly
[3] = target: the molecule itself; assay: cell-based or functional assay

Molecule | t1/2 (h) of ThT aggregation, 10 µM PLD monomer, 0 % PLD seeds [1] [h] | t1/2 (h) of ThT aggregation, 10 µM PLD monomer, 0.1 % PLD seeds [1] [h] | t1/2 (h) of ThT aggregation, 10 µM PLD monomer, 0.5 % PLD seeds [1] [h] | t1/2 (h) of ThT aggregation, 10 µM PLD monomer, 1 % PLD seeds [1] [h] | kex (exchange rate, 15N CPMG) [2] [s⁻¹] | t1/2 (h) of ThT aggregation, 10 µM MetO PLD monomer, 0 % MetO PLD seeds [3] [h] | t1/2 (h) of ThT aggregation, 10 µM MetO PLD monomer, 0.1 % MetO PLD seeds [3] [h] | t1/2 (h) of ThT aggregation, 10 µM MetO PLD monomer, 0.5 % MetO PLD seeds [3] [h] | t1/2 (h) of ThT aggregation, 10 µM MetO PLD monomer, 1 % MetO PLD seeds [3] [h]
prion-like domain (PLD) of human TDP-43 (TDP-43 274-414), unmodified (from UniProt Q13148 274-414) | 4.87 | 4.99 | 2.88 | 2.86 | > 2000 |  |  |  | 
B1 |  |  |  |  |  | 54.9 | 38.3 | 18.7 | 18

Source: EP4389215A1 (Consejo Superior De Investigaciones Científicas, dated 2024)
